Results published in PMC5291245 (Nucleic Acids Research, 2016).

Molecular target: His6-SUMO tagged H3.3 (human, UniProt P84243 1-136)
Experiment: native gel or EMSA

binding result: binds
B1: human histone H3.Y (natural protein)
chain: not shown
